According to patent US20240190987A1, “Engineered EpCam Binding Antibodies” (TigaTX, priority 2021, published 2024):
Entries after “also recorded” stand apart in the source; their conditions may differ.

Legend:
Ab0902 (LS2B R5M2) = assay: BLI indinavir-dependent binding of LS2A Ab0223 to LS2B Ab0902
Protocol: Binding was measured by biolayer interferometry (BLI). Ab0902 (LS2B R5M2) was captured by anti-hIgG Fc capture (AHC) biosensors and kinetics was measured to Ab0223 (LS2A humanized parent) in the presence of […].
A series of biophysical experiments was conducted to further elucidate a mechanism for Indinavir switch assembly. Biolayer interferometry experiments were performed to measure LS2A and LS21B assembly in the presence and absence of saturating concentrations of Indinavir. […] A BLI kinetics assay was performed to assess the reversibility kinetics of the LS2A/LS2B complex upon Indinavir washout.
(§1) Bio-layer interferometry (BLI) data were measured using an Octet RED384 (ForteBio) instrument. Antigens of interest were immobilized on an AHC biosensor and loaded until a 0.4-0.6-nm signal was achieved. Purified antibodies were used as the analyte premixed with 10 μM Indinavir or 0.05% DMSO vehicle. PBSTB (PBS, pH 7.4, 0.05% Tween-20, 0.2% BSA) was used for all buffers for BLI. Data were analyzed using ForteBio Octet analysis software and kinetic parameters were determined using a 1:1 monovalent binding model.

[1] = SPR binding of free indinavir to LS2A clones; details: read-out: Affinity to free Indinavir by SPR
Protocol: Detailed methods are described in the methods section. […] A 3-fold serial dilution of indinavir was injected over sensor chip and binding was measured using single-cycle kinetics. The data was double reference subtracted and fit to a 1:1 Langmuir kinetic model.
All assays were performed at 25° C. in 1×PBS-P+ buffer made from a 10× buffer stock (Cytiva 28995084). […] For Ab0759, a single-cycle kinetics experiment was performed with five sequential injections of 3-fold serial diluted (37, 111, 333, 1000, 3000 nM) indinavir at 30 μL/min for 240 seconds each and dissociation was monitored for 600 seconds. […] The data was double referenced subtracted to the reference lane and five sequential injections of 0 nM indinavir. The kinetic data was fit to a 1:1 Langmuir model to determine the association and dissociation rate constants.

[2] = Differential scanning fluorimetry (DSF) melting temperature; type: physicochemical
Protocol: DSF was performed on a LC480 Lightcycler Instrument II (Roche). Purified recombinant protein was diluted to 5 μM in DSF buffer (PBS, pH 7.4, Sypro Orange 5×) with small molecule (10 μM VTX) or vehicle (0.05% DMSO) and then heated with a temperature gradient (0.01° C./s) from 25 to 95° C. Data were continuously acquired at ˜465 nm (excitation) and ˜580 nm (emission). Data was analyzed to generate first derivative curves in which the curve maximum was reported as the melting temperature of the protein.

human PBMCs = assay: Surface staining of human PBMCs by flow cytometry; type: cell-based; details: TCRab+, CD4+ and CD8+ subsets
Protocol: (§2) FIG. 32 depicts Ab1070 binding to human and cynomolgus macaque PBMCs. Binding was measured by flow cytometry using a secondary fluorescent antibody (IgG-PE). T-cell subsets were identified using additional fluorescent antibodies against TCRab, CD4 and CD8 and gated prior to quantifying the median fluorescence intensity (MFI) of the IgG-PE channel. […] The assay was performed with up to 10 μM antibodies (titrated as indicated).
(§3) Peripheral blood mononuclear cells (PBMCs) from healthy cynomolgus macaques (Chinese origin) were obtained commercially (iQ Biosciences, Berkeley, CA). Peripheral blood mononuclear cells (PBMCs) from healthy human donors were isolated from leukapheresis packs (leukopaks) from deidentified healthy adult donors (StemCell Technologies, Vancouver, BC). Human PBMCs were isolated using the EasySep Direct Human PBMC Kit (StemCell Technologies) then cryopreserved in DMEM with 10% FBS and 10% DMSO. Frozen PBMC cryovials were thawed on the day of experiments and washed complete growth media (DMEM+10% FBS+1% penicillin/streptomycin). Cells were resuspended in growth media and transferred to a 96-well U-bottom plate at 55,000 cell/well. Human TruStain FcX (Fc Receptor Blocking Solution; Catalog number 422302; BioLegend, San Diego, CA) was added at a 1:20 final dilution of the manufacturer's stock and incubated for 10 minutes at room temperature in a volume of 25 μL. […]

[3] = Ab0640 pharmacokinetics in mice; type: in vivo; details: 6.7 mg/kg single IV, C57BL/6 mice
Protocol: Plasma samples were collected at 30 min, 24 hr, 72 hr, and 168 hr and concentrations of the antibodies were determined by ELISA.
Female […] mice (age 10-12 weeks) were distributed into 2 groups (n=5 per group). Antibodies were diluted in sterile PBS and injected intravenously at 6.7 mg/kg. Blood (55 μL from the retroorbital sinus) was sampled serially at 4 time points (30 min, 1 day, 3 days, 7 days), processed to plasma, diluted 1:10 in 50% glycerol+PBS, then cryopreserved. Plasma concentrations were quantified using an anti-human IgG sandwich ELISA that was developed and qualified in-house. The capture antibody for the ELISA was goat anti-human IgG (Cat. No. 2049-01; Southern Biotech, Birmingham, AL) coated on 96-well Nunc-Immuno Maxisorp plates (Thermo Fisher Scientific) at […] for 1 hr at 37° C. The detection antibody was mouse anti-human IgG Fc-HRP (Cat. No. 9042-05; Southern Biotech, Birmingham, AL) at 1:32,000 dilution of the manufacturer stock. ELISA coating, blocking, wash, and TMB substrate buffers from BioLegend were used according to the manufacturer's instructions. Non-compartmental pharmacokinetic parameters were calculated using the PKNCA package for R (doi: 10.1007/s10928-015-9432-2).

cynomolgus macaque PBMCs = assay: Surface staining of cyno PBMCs by flow cytometry; type: cell-based; details: TCRab+, CD4+ and CD8+ subsets
Protocol: as §2, §3

Ag0067 (LS2A R2M9) = assay: BLI LITE Switch indinavir washout/reversibility kinetics; type: binding
Protocol: Binding was measured by biolayer interferometry (BLI). Biotinylated-Ag0067 (LS2A R2M9) was captured on streptavidin biosensors. Binding of 50 nM Ab1073 (LS2B R7M2) to Ag0067 was allowed to reach steady-state in the presence of 1 μM IDV. Complex dissociation was subsequently performed for 2 hours in buffer containing (1) 50 nM Ab1073 and 1 μM IDV, (2) 50 nM Ab1073 and vehicle (washout), and (3) vehicle only. […] In 2 hours of IDV washout, the LITE Switch dissociated to nearly 0% complex, whereas complete complex dissociation was observed within 10 min upon removal of both Ab1073 and IDV.
LITE Switch indinivir (IDV) washout/reversibility kinetics (FIG. 21) were measured by biolayer interferometry (BLI) on an Octet® Qke (Sartorius) instrument. Biotinylated scFv-Fc Ag67, in the presence of 1 μM IDV or 0.05% DMSO vehicle, was immobilized on streptavidin biosensors and loaded to a signal of 1.2-1.8 nm. After loading, biosensors were blocked with 10 μM biotin containing 1 μM IDV or vehicle. […] Data were analyzed using ForteBio Data Analysis HT software version 12.0.2.59. Dissociation constants were determined using a 1:1 monovalent binding model, local fitting, and with dissociation baseline to zero. Data were additionally analyzed using GraphPad Prism 9 software version 9.1.2 (225) with a one-phase exponential decay nonlinear regression model. […]

LS2A R3M1 (Ab0786) = assay: BLI binding of LS2B variants to LS2A R3M1 (Ab0786) with indinavir
Protocol: Binding kinetics were measured by biolayer interferometry (BLI). Biotinylated-Ab0785 (LS2A R2M34 Fab) or biotinylated-Ab0786 (LS2A R3M1 Fab) was captured by streptavidin biosensors and binding to Ab1071 (LS2B R5M2 Fab), Ab1072 (LS2B R7M1 Fab), and Ab1073 (LS2B R7M2 Fab) was measured in the presence of […].
In R6 of engineering, alanine scanning of clone R4M16 were performed to find improved binding to LS2A R3M2 (Ab0787) and LS2A R3M1 (Ab0786). Variants were screened for binding to LS2A (Ab0223) and LS2A R3M2 (Ab0787) with a single-point kinetic screen.
In R7, combination mutants from R6 were designed to generate further affinity variants. Variants were screened for binding to LS2A Ab0787 and Ab0786 with a single-point kinetic screen. Five-point kinetics was measured for a subset of molecules.
as §1

B1: Ab0223: LS2A humanized parent (antibody, V domains shown)
VH: QVQLVQSGAEVKKPGASVKVSCKASGYTFTSYWMHWVRQAPGQGLEWMGIIHPNSGGTSYAQKFQGRVTMTRDTSTSTVYMELSSLRSEDTAVYYCAMGDYVSRDYWGQGTLVTVSS
VL: EIVLTQSPGTLSLSPGERATLSCRASSSVSSSYLHWYQQKPGQAPRLLIYSTSSRATGIPDRFSGSGSGTDFTLTISRLEPEDFAVYYCQQYSGYLFTFGQGTKLEIK
For B1, the Kd (Ab0902 (LS2B R5M2); in the presence of 10 μM IDV, read-out: affinity for binding to Ab0902) was 1.6 nM and the “binding to Ab0902 in the absence of Indinavir” value (Ab0902 (LS2B R5M2); no indinavir) was “no binding was detected; also recorded: no detectable interaction”.

B2: Ab0899: humanized LS2A R3M1 (protein)
scFv: QVQLVQSGAEVKKPGASVKVSCKASGYTFTSYWMHWVRQHPGQGLEWMGMIHPNSGGTNYAQKFQGRVTMTRDTSTSTVYMELSSLRSEDTAVYYCAMGDYVSRDYWGQGTLVTVSSGGGGSGGGGSGGGGSEIVLTQSPGTLSLSPGERATLSCRASSSVSSSYLHWYQQKPGQAPRLLIYSTSSRATGIPDRFSGSGSGTDFTLTISRLEPEDFAVYYCQQYSGYQFTFGQGTKLEIK
modifications: left off: a dimerising Fc or GST; small tags and cut ends
notes: humanized LS2A R3M1
For B2, the Kd [1] was 4.6 nM and the “TM (° C.)” value ([2]; scFv-Fc format, LS2A R3 (Table 20)) was 56.1 °C.

B3: hSP34v68: humanized SP34 anti-CD3 clone v68, scFv-Fc (antibody)
heavy: EVQLVESGGGLVQPGGSLRLSCAASGFTFNTYAMNWVRQAPGKGLEWVARIRSKYNNYATYYADSVKGRFTISRDDSKSILYLQMNSLRAEDTAVYYCVRHGNFGNSYVSWFAYWGQGTLVTVSSGGGGSGGGGSGGGGSDIQVTQSPSSLSASVGDRVTITCRSSTGAVTTSNYANWVQQKPGKAFKGLIGGTNKLASGVPSRFSGSLSGDDATLTISSLQPEDFATYYCALWYSNLWVFGQGTKLEIKGGGGSDKTHTCPPCPAPEAAGGPSVFLFPPKPKDTLMISRTPEVTCVVVDVSHEDPEVKFNWYVDGVEVHNAKTKPREEQYNSTYRVVSVLTVLHQDWLNGKEYKCKVSNKALGAPIEKTISKAKGQPREPQVYTLPPSRDELTKNQVSLTCLVKGFYPSDIAVEWESNGQPENNYKTTPPVLDSDGSFFLYSKLTVDKSRWQQGNVFSCSVMHEALHNHYTQKSLSLSPGK
modifications: REGION 1..482: note = Ab0640 HC
notes: humanized SP34 anti-CD3 clone v68, scFv-Fc
With B3 the “TM (° C.)” value ([2]; DSF, hSP34v68 R1 variants (Table 23)) was 60.7 °C, the “binding to human PBMC T-cell subsets” value (human PBMCs) was “Detectable and saturable binding” and the half-life [3] was 112 h. For the same molecule, the “binding to cyno PBMC T-cell subsets” value (cynomolgus macaque PBMCs) was “Detectable and saturable binding”.

B4: Ab1073: LS2B R7M2 Fab (antibody, V domains shown)
VH: EVQLVESGGGLVQPGGSLRLSCAASGFDFSSYSIHWVRQAPGKGLEWVAAISPYYGSTYYADSVKGRFTISADTSKNTAYLQMNSLRAEDTAVYYCARYYEYYKYDLYAGSLGFDYWGQGTLVTVSS
VL: DIQMTQSPSSLSASVGDRVTITCRASQSVSSAVAWYQQKPGKAPKLLIYSASSLYSGVPSRFSGSRSGTDFTLTISSLQPEDFATYYCQQGGYSLITFGQGTKVEIK
With B4 the “LITE Switch reversibility at constant Ab1073 and IDV” value (Ag0067 (LS2A R2M9); 50 nM Ab1073 and 1 μM IDV) was “no LITE Switch reversibility was observed”, the “complex remaining after IDV washout” value (Ag0067 (LS2A R2M9); 2 hours, 50 nM Ab1073 and vehicle) was about 0% and the “binding to LS2A clones (FIG. 17)” value (LS2A R3M1 (Ab0786); biotinylated Ab0785 (R2M34) or Ab0786 (R3M1) captured, indinavir present) was “improved affinities”.

B5: Ab1045: LS2B; HC: S50A+W98Y on Ab0902 (antibody, V domains shown)
VH: B4 VH
VL: B4 VL
In the case of B5, the “TM (° C.)” value ([2]; Table 15) is reported as 77.7 °C and the Kd (LS2A R3M1 (Ab0786); five-point kinetics, values equal Table 15 column LS2A Ab0786) is reported as 40 nM.
